{"source": "a protein production outcome set (Wang et al. 2014)", "test": "label from the status in PepcDB records"}
{"sequence": "MGKKTENLKIDAKKSFLKRIAKNVKVSEGERAVEDILRCIYRNQPISTKKIGQYVKLPLPIVSKVRSILERESLLKRDDKGAVLSKKGIDFVENELGLKLKSDMKCPVCSGRNIVFDEKFEKILKKHKTYAKLRPQVNTMIDQSFATPETATARAAIMADRGDLEGKRVLFVGDDDLASIPTAMTGLCSEVVVLDIDDRLLKLISEVSKKENLNIRTVKWDFKNELPSEFVNKFDTIFTDPPYTLNGAVLFMSRGIEALGDNGILYLAFSHKPVEEYIELQKSINNMNFLIYELIPGFNFYEGTEIIGNTTFLARLVGKNLKKIEVNSEKIYTGELKPTLRYYQCMNCKKIHEVGNKVKRIEDLTCECGGKK", "values": [{"measurement": "protein production", "result": "failed"}]}
{"sequence": "MDLRRRQWFLSAILLSAALLIDPQFSTAATASENLVFEVRSKFAGKRVKDLGALRAHDVHRHSRLLSAIDIPLGGDSQPESIGLYFAKIGLGTPSRDFHVQVDTGSDILWVNCAGCIRCPRKSDLVELTPYDVDASSTAKSVSCSDNFCSYVNQRSECHSGSTCQYVIMYGDGSSTNGYLVKDVVHLDLVTGNRQTGSTNGTIIFGCGSKQSGQLGESQAAVDGIMGFGQSNSSFISQLASQGKVKRSFAHCLDNNNGGGIFAIGEVVSPKVKTTPMLSKSAHYSVNLNAIEVGNSVLELSSNAFDSGDDKGVIIDSGTTLVYLPDAVYNPLLNEILASHPELTLHTVQESFTCFHYTDKLDRFPTVTFQFDKSVSLAVYPREYLFQVREDTWCFGWQNGGLQTKGGASLTILGDMALSNKLVVYDIENQVIGWTNHNCSGGIQVKDEESGAIYTVGAHNLSWSSSLAITKLLTLVSLLIPFFCNVAL", "values": [{"measurement": "protein production", "result": "not failed"}]}
{"sequence": "MINMKPQYYLGMMSGTSLDGVDIVLVDFSQDPQLILSDFFPMPEDLREKLTTLIQVGETTLQNLGELDHKLALLYSDCVNAFLQKNTFLPNQIQAIGCHGQTVWHSPNSQFPFTMQLGDMNLLAAKTGISVIGDFRRKDMAWGGQGAPLVPAFHEAVFSNSNFATAVLNIGGISNVSILFPNQAVIGFDTGPGNTLLDQWIEKHQGLRYDENGEWAAKGNVNKVLLDELLNEPFFSLPAPKSTGRELFNLVWLNHKIAKIREKLTALSVEMSFRPEDVQATLVELTVTSIVNALNQLQTDLPKRLLVCGGGAKNSLIMRGLHDNLLDWQVSTTTEQGFDIDYVEAAAFAWLAYCRINNLPANLPSVTGAKSAVSLGAIFPKD", "values": [{"measurement": "protein production", "result": "failed"}]}
{"sequence": "MNNTNPLVSIIVPVYKVERYIHRSIDSLLRQTYNNLEIILVDDGSPDNCPFICDKYAMQDNRIRVIHKSNGGLSDARNAALNVMTGQYVTFVDSDDYIADNMIEKFIETVKLYQCNMVVAGMNIIDKNNQIYDYRRTLTSTLSTGIDITRKLLKDVFPFNFVCAKIFESSLFEEIRFPVGRHYEDTATTYKLTHKCERIYCIADCLYFYELEREGNITSELNTSKAIKSYIDGCLNSREQIFFCQKHKDFSDLLPVLTKRLQLWALLAIQSAISLGYKEYMFYYHQIRIYIRSLSYTQRMTHLQIALTFPIIYYSLYPLLSRLKKMYKN", "values": [{"measurement": "protein production", "result": "failed"}]}
{"sequence": "MAVRVCCHAPPGVSNHLFTFCAGNLTTGFSGGSVTSQKGGAAGLPTCSRRCPRGCLPGSDPLPRHPRRYAPPVTPPVTPPTTPAPRSRARMLELVFPKDTNYHGTAFGGWVLALMDKAASVAAVRHAGGNVVTARMDGVDFHVPIRVGDAVALDARVIRVGRSSMTIRVDVYRENMASGEQQLATGGLFTFVALGEDGKPRPVPPLPEGSTDSEQPDYEARP", "values": [{"measurement": "protein production", "result": "failed"}]}
{"sequence": "MSYGLIIVLMIILGIGLWHTKKYHRAVVNQVAHVWITKNAFEHTALGMAIVSPDCRFLKVNRAYGEITGYTRPELLKMAVKELTHPEDQEKDTPYLQEVFAGNIHSFTTVKRYIHKNGSTIWVRSTISAVRTERGNLEHHHHHH", "values": [{"measurement": "protein production", "result": "not failed"}]}
{"sequence": "MLETSSHFLKSFRLKRYIGFLLISLALLITPFVRIDGAHLFLISFEHKQLHFLGKIFSAEELQVMPFMVILLFIGIFFITTSLGRVWCGWACPQTFLRVLYRDVIETKIFKLHKKISNKQESPKNTPSYKIRKVLSVLLFAPVVAGLMMLFFFYFIAPEDFFMYLKNPSDHPIAMGFWLFSTAVVLFDIVVVAERFCIYLCPYARVQSVLYDNDTLNPIYDEKRGGALYNNQGHLFPLPPKKRSPENECVNCLHCVQVCPTHIDIRKGLQLECINCLECVDACTITMAKFNRPSLIQWSSTNAINTRQKVHLVRLKTIAYMGVIAIVIALLAITSFKKERMLLDINRNSDLYELRSSGYVDNDYVFLFHNTDNKDHEFYFKVLGQKDIQIKKPLNPIAIKAGQKIKAVVILRKPLKSNATEYKNAKDALIPITIQAYSADDKNITIERESVFIAPSED", "values": [{"measurement": "protein production", "result": "failed"}]}
{"sequence": "MRTPLIDRRDFLRAAGIGFAAVMAPSAWAKTLAANAVFATAFVKRDGSFGAAILSEAGKVLHAIDLPDRGHDVTFDPISKRSVVFARQPGTFAVVFDHSGRDAPQTVASISGRHFFGHGVFSPDGALLYATENDFDNAAGVIGIYDARAKFSRVGEFPTYGMGPHELLLLGDGRTMAVANGGIETHPDYGRAELNIATMKPSYVLIDRVTGDLIEKHELPASLHQLSIRHMDTDPSGTVWFGCQYRGPGTDRPLLVGRAVRGKELQLLDMPQDVLSGFRNYIGSVAANLSAGSVAVSSPEGNSLVVIDAASGRVVSSSALVEVCGLAPDGSGFIATTGAGEIIEGSGATRSEPDYVWDNHMLRIERA", "values": [{"measurement": "protein production", "result": "failed"}]}
{"sequence": "MGHSGREERIKDIFKELTSKELTPGLLLTLQKLAQKPNTNLEQFIASCKALTKLSSNNPIIFNELLELLKNKSEEDSTGPKKIAPSINKRKKFKIQLDLDDNEDELDSPVQKKPAPTRTLFKRIDKLKAKQLRQYSPTVKDPSPNSEQQTQNGHAETKDYEPTRSEVVEEDREWYDNDDDYGNLVPEPLSELPEEAKLLPVIRNIDNDDALRNTVQLYPIPLKQRMEWIPPFLSKFALENKVPTSIIIGSISETSSQVSALSMVNPFRNPDSEFSANAKRGSKLVALRRINMEHIQQSRDNTTVLNTAMGEVLGLENNNKAKDKSNQKICDDTALFTPSKDDIKHTKEQLPVFRCRSQLLSLIRENQVVVIIGETGSGKTTQLAQYLYEEGYANDRGKSIVVTQPRRVAAISVAKRVAMEMQVPLGKEVGYSIRFEDVTDSECTKLKFVTDGILLRETLLDDTLDKYSCVIIDEAHERSLNTDILLGFFKILLARRRDLKLIITSATMNAKKFSAFFGNAPQFTIPGRTFPVQTIYTSNPVQDYVEAAVSQAVKIHLANDCSSGDILIFMTGQEDIETTFDTLQEKFLQVYSKKFGTANFEEINDIEILPIYSALPADLQFKIFQDLHGTKRKIIIATNIAETSLTIKGIRYVIDCGYSKLKVYNPKIGLDSLVITPISKANADQRSGRAGRTAPGTAYRLYTEDTFKEDMYLQTIPEIQRTNLSNTLLLLKSLDVTDELSKFPFIDKPPLQTFLSSLYELWFIGAIDTSGQLTPLGLQMAKFPLQPSLSKILLIAVRNGCSDEMLTIVSMLSVPQVFYRPKERQKEADIARNKFFIAKSDHLTLLNVFEQWRANNFSSHWCNKHFVQYKSLVRARDIRDQLLTILKSQKIPVISSGKDWDIIKKCICSGFAHQAAKITGLRNYVHLKTGVSVQLHPTSALHGLGDLPPYVVYHELLMTSKEYICCVTSVDPFWLMEYGGLLYDIKRIKNDQEATTTGLFGEHYEHTLDKVEDDIDINIRRCKDMRDSVIQELKMTDNSNKEDKKQKTKKQNILNGKENSMKPFKRRKPFF", "values": [{"measurement": "protein production", "result": "failed"}]}
{"sequence": "MSLFIALCGLILAGRLILKNYNPQGVLFFVGIVMMTISIFTNNATFVDKSTGWIGFDVFEYISMVFGKQSGGLGLKIMLIGGFALLMSAIGASQVMVKLTAKPLMKLNSPYLMLALAFILGQMLSLFISSATGLGLLLMATLYPVLIRLGCSKAGVASVLASTCAIEFGPGSGNSILAAQTAGLEITEYFVGEQLPIISVLIIVVAIMHAITQRFFDRNDEKNQTLEPINYEDIESEQSAPFYYVILPMLPLFFMLTFSSLGVKTINVGMATAIILSIFISLVFEFIREREVKPVFEKLQGVFDDMGKVFASVVTLIIAGQTFSMGLKSIGAIDSMLHMASSVGLSAAVIILFMALLTFIISALMGSGNAAFFSFAPMVPQIAHKIGANTVDMILPIQLSAGFGRTISPIAGVIIAVAGISGLSPFDIVRRTLIPMVSGWLLMLILTFSKGGQLEQLMPFLIVILVLSVGVGWIMKRKNNRTQLTQ", "values": [{"measurement": "protein production", "result": "failed"}]}
